Data as given in patent publication US20210171610A1 (US Dept. of Health and Human Services, published 2021).

How the values were obtained:
[1] = target: T1, Soluble EBV gH/gL complex (poly-histidine tagged) (Epstein Barr Virus, UniProt P03231 19-679; P03212 24-137); assay: Biolayer interferometry (Octet), His-tagged gH/gL on HIS1K biosensors, Fab dilution series (top curve labelled 2.50E-08), 300 s association, 900 s dissociation, 1:1 global fit
T1 construct: also called gH/gL Avi-His probe

[2] = target: T2, Soluble EBV gH/gL/gp42 complex (HIS-tagged) (Epstein Barr Virus, UniProt P03231 19-679; P03212 24-137; P03205 33-223); assay: Biolayer interferometry (Octet), His-tagged gH/gL/gp42 on HIS1K biosensors, Fab dilution series (top curve labelled 5.00E-08), 300 s association, 900 s dissociation, 1:1 global fit
[3] = target: T2, Soluble EBV gH/gL/gp42 complex …; assay: Biolayer interferometry (Octet), His-tagged gH/gL/gp42 on HIS1K biosensors, Fab dilution series (top curve labelled 2.50E-08), 1:1 global fit; same panel as FIG. 1C
[4] = target: T2, Soluble EBV gH/gL/gp42 complex …; assay: Biolayer interferometry (Octet), His-tagged gH/gL/gp42 on HIS1K biosensors, Fab dilution series (top curve labelled 2.50E-08), 300 s association, 900 s dissociation, 1:1 global fit
[5] = target: T1, Soluble EBV gH/gL complex …; assay: Biolayer interferometry (Octet), His-tagged gH/gL on HIS1K biosensors, Fab dilution series (top curve labelled 2.50E-08), 300 s association, 900 s dissociation, 1:1 global fit; remark: listed apart in the source
[6] = target: T1, Soluble EBV gH/gL complex …; assay: BLI kinetics, KD on gH/gL against KD on gH/gL/gp42
[7] = target: T1, Soluble EBV gH/gL complex …; assay: BLI (Octet), His-captured soluble gH/gL on HIS1K biosensor, Fab in solution, 1:1 global fit; target gH/gL without gp42
[8] = target: T1, Soluble EBV gH/gL complex …; assay: Biolayer interferometry (Octet), His-tagged gH/gL on HIS1K biosensors, Fab dilution series (top curve labelled 2.50E-08), 1:1 global fit; same panel as FIG. 1C
[9] = target: T2, Soluble EBV gH/gL/gp42 complex …; assay: BLI (Octet), His-captured soluble gH/gL/gp42 on HIS1K biosensor, Fab in solution, 1:1 global fit; target gH/gL/gp42 (gp42 present)
[10] = target: T2, Soluble EBV gH/gL/gp42 complex …; assay: Biolayer interferometry (Octet), His-tagged gH/gL/gp42 on HIS1K biosensors, Fab dilution series (top curve labelled 1.00E-07), 300 s association, 900 s dissociation, 1:1 global fit
[11] = target: T1, Soluble EBV gH/gL complex …; assay: Biolayer interferometry (Octet), His-tagged gH/gL on HIS1K biosensors, Fab dilution series (top curve labelled 5.00E-08), 300 s association, 900 s dissociation, 1:1 global fit

T2 sequence (P03231 19-679 limits assumed, chain 1 of 3): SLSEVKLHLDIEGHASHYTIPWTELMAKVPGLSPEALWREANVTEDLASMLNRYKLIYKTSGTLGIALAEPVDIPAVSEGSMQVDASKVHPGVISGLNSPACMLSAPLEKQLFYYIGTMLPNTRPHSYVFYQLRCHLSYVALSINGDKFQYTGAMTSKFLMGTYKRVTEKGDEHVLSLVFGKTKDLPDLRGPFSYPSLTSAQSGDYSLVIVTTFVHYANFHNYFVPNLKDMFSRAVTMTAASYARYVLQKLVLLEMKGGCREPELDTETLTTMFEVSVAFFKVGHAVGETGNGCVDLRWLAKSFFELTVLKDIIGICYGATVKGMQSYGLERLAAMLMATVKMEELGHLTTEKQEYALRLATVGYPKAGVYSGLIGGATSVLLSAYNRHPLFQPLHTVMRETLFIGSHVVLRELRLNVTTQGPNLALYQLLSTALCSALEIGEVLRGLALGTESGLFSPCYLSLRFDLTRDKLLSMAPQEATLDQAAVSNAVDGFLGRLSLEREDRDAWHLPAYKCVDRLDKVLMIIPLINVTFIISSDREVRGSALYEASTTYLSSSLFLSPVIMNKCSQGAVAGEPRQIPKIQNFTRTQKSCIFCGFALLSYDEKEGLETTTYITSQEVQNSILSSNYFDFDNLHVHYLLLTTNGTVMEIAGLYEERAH
T2 sequence (P03212 24-137 limits assumed, chain 2 of 3): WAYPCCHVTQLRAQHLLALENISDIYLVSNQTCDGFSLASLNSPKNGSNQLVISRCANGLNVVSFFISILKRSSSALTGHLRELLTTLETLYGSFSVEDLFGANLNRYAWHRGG
T2 sequence (P03205 33-223 limits assumed, chain 3 of 3): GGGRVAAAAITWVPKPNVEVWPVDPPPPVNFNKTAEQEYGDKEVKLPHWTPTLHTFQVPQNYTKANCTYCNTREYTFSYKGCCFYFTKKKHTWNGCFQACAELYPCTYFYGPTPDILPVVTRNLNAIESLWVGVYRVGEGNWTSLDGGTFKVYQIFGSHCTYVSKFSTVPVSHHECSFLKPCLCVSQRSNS
T1 sequence (P03231 19-679 limits assumed, chain 1 of 2): as the sequence (P03231 19-679 limits assumed, chain 1 of 3) above
T1 sequence (P03212 24-137 limits assumed, chain 2 of 2): as the sequence (P03212 24-137 limits assumed, chain 2 of 3) above

B1: Fab fragment of antibody 770F7 (Fab, V domains shown)
VH: QVQFQQWGAGLLKPSETLSLTCGVYGGSLSGYYWSWIRQTPGKGLEWIGEINHTGTTNYNPSLKSRVTMSVDTSKNQFSLKMSSLTAADTALYYCAREGAPRWALKRPSNWFDPWGQGTLVTVSS
VL: EIVLTQSPVSLSLSPGERATLSCRASQSISSTYLAWYQQIPGQAPRLLIYGASSRAAGIPDRFSGGGSGTDFTLTISRLEPEDFAVYYCQQYGSSPRSFGQGTKLEIK
notes: also called 770F7 Fab
Question: What does the source list for B1?
Answer: Kd [1]: 0.317 nM; koff [1]: 0.000165 s⁻¹; kon [1]: 520000 M⁻¹ s⁻¹; Kd [2]: 0.207 nM; koff [2]: 0.000128 s⁻¹; kon [2]: 619000 M⁻¹ s⁻¹

B2: Fab fragment of 769B10 (Fab, V domains shown)
VH: EVQLVESGGGIVQPGGSLRVSCAASGFSLSDHYMDWVRQAPGRGLEWVGRSRNKENSFTTEFAASVRRRFTISRDDSNSLLHLQMNNLKSEDTAVYFCARVGYYDLWSGYSGNWYIDVWGRGTLVIVSS
VL: DIQMTQSPSSLSASLGDSVTITCRASQTMSNFLNWYQQKPGKAPKFLIYAASRLQSGVPSRFSGSGSGTQFTLTISNLQPEDFATYYCQQSFIFPYTFGGGTKVEVE
notes: also called 769B10 Fab; B10 Fab
Question: Which results are given for B2?
Answer: koff [3]: 2.58e-05 s⁻¹; kon [3]: 564000 M⁻¹ s⁻¹; koff [4]: 2.58e-05 s⁻¹; kon [4]: 564000 M⁻¹ s⁻¹; koff [5]: 1.51e-05 s⁻¹; kon [5]: 490000 M⁻¹ s⁻¹; fold stronger affinity than for gH/gL/gp42 [6]: 10 fold; Kd [7]: 0.0307 nM; koff [8]: 1.51e-05 s⁻¹; kon [8]: 490000 M⁻¹ s⁻¹; Kd [9]: 0.458 nM

B3: Fab fragment of antibody 769C2 (Fab, V domains shown)
VH: EVQLVESGGGLVKPGGSLRLSCAASGFTFSTYAMDWVRQAPGKGLEWVSLISSRSSNIYYSDSVKGRFTISRDNAKNSLFLQMNSLRAEDTAVYYCAREAGGFHSHFDMWGQGTLVTVSS
VL: QSVLTQPASVSGSLGQSVTISCTGTSSDVGGYDYVSWYQQHPGKAPKLMIFEVNNRPSGVSTRFSGSKSGNTASLTISGLQAEDEADYYCNSYSTTTTWVFGGGTSLT
notes: also called 769C2 Fab
Question: For B3, which Kd [10] is on record?
Answer: 2.05 nM

Question: What about the koff [10] of the same binder?
Answer: 0.000425 s⁻¹

Question: And the kon [10]?
Answer: 207000 M⁻¹ s⁻¹

Question: And the Kd [11]?
Answer: 1.16 nM

Question: What about the koff [11] of the same binder?
Answer: 0.000292 s⁻¹

Question: And the kon [11]?
Answer: 252000 M⁻¹ s⁻¹
